Reference: publication PMC9834060

Tests used:
Test in all cases: cryo-EM structure; BlaR1 in LMNG, purified by GraDeR glycerol gradient, desalted into 150 mM sodium chloride, 20 mM HEPES pH 7.5; grids blotted at 4 °C; BlaR1(F284A) also with ampicillin (1 mM, then 250 µM)
[1] = molecular target: S. aureus BlaR1 F284A mutant (BlaR1(F284A)) (S. aureus) (UniProt Q00419)
[2] = molecular target: S. aureus BlaR1 F284A mutant acylated with ampicillin (BlaR1(F284A)–ampicillin) (S. aureus) (UniProt Q00419)
[3] = molecular target: S. aureus BlaR1, wild type (BlaR1(WT)) (S. aureus) (UniProt Q00419)

“S. aureus BlaR1 F284A mutant (BlaR1(F284A)) (from UniProt Q00419 1-585) (receptor)” gave a stoichiometry N [1] of 2.
With “S. aureus BlaR1 F284A mutant acylated with ampicillin (BlaR1(F284A)–ampicillin) (from UniProt Q00419 1-585) (receptor)” the stoichiometry N [2] was 2.
In the case of “S. aureus BlaR1, wild type (BlaR1(WT)) (from UniProt Q00419 1-585) (receptor)”, the stoichiometry N [3] is reported as 2.
